Experimental data as given in the supplement of paper PMC10567573.

B1: DVL3 (parent)
chain: YNPHPGFPELGYSYGGGSASSQHS

Variants of: B1
Assay: protein stability index of a GFP-peptide fusion (GPS, HEK-293T) (PSI 1-6); higher = more stable
Conditions: c terminus: a fixed tail appended
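Further: lentivirally expressed fusions sorted by FACS into six bins by GFP to DsRed ratio, PSI derived from sequencing read proportions per bin multiplied by bin number.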

Variant | protein stability index
YNPHPGFPLLGYSYGGGSASSQHS | 3.13
YNPHPGFPALGYSYGGGSASSQHS | 2.3
YNPHPGFPRLGYSYGGGSASSQHS | 2.44
YNPHPGFPMLGYSYGGGSASSQHS | 2.69
YNPHPGFPQLGYSYGGGSASSQHS | 2.04
YNPHPGFPCLGYSYGGGSASSQHS | 2.5
YNPHPGFPKLGYSYGGGSASSQHS | 1.8
YNPHPGFPYLGYSYGGGSASSQHS | 1.14
YNPHPGFPPLGYSYGGGSASSQHS | 3.58
YNPHPGFPNLGYSYGGGSASSQHS | 2.46
YNPHPGFPGLGYSYGGGSASSQHS | 2.16
YNPHPGFPDLGYSYGGGSASSQHS | 2.11
YNPHPGFPHLGYSYGGGSASSQHS | 2.19
YNPHPGFPTLGYSYGGGSASSQHS | 1.84
YNPHPGFPILGYSYGGGSASSQHS | 1.18
YNPHPGFPSLGYSYGGGSASSQHS | 1.59
YNPHPGFPELWYSYGGGSASSQHS | 2.29
YNPHPGFPELPYSYGGGSASSQHS | 2.29
YNPHPGFPELKYSYGGGSASSQHS | 3.13
YNPHPGFPELTYSYGGGSASSQHS | 2.76
YNPHPGFPELMYSYGGGSASSQHS | 3.03
YNPHPGFPELEYSYGGGSASSQHS | 3.4
YNPHPGFPELCYSYGGGSASSQHS | 2.3
YNPHPGFPELIYSYGGGSASSQHS | 2.24

Variant | protein stability index
YNPHPGFPELHYSYGGGSASSQHS | 2.46
YNPHPGFPELRYSYGGGSASSQHS | 3.24
YNPHPGFPELAYSYGGGSASSQHS | 2.76
YNPHPGFPELVYSYGGGSASSQHS | 2.44
YNPHPGFPELSYSYGGGSASSQHS | 2.71
YNPHPGFPELNYSYGGGSASSQHS | 2.72
YNPHPGFPELYYSYGGGSASSQHS | 2.66
YNPHPGFPELDYSYGGGSASSQHS | 2.82
YNPHPGFPELQYSYGGGSASSQHS | 3.29
YNPHPGFPELLYSYGGGSASSQHS | 2.04
YNPHPGFPELGYSYGKGSASSQHS | 2.93
YNPHPGFPELGYSYGIGSASSQHS | 2
YNPHPGFPELGYSYGAGSASSQHS | 3.45
YNPHPGFPELGYSYGFGSASSQHS | 1.79
YNPHPGFPELGYSYGCGSASSQHS | 2.04
YNPHPGFPELGYSYGHGSASSQHS | 2.72
YNPHPGFPELGYSYGEGSASSQHS | 3.61
YNPHPGFPELGYSYGDGSASSQHS | 3.4
YNPHPGFPELGYSYGLGSASSQHS | 2.3
YNPHPGFPELGYSYGNGSASSQHS | 2.99
YNPHPGFPELGYSYGMGSASSQHS | 2.79
YNPHPGFPELGYSNGGGSASSQHS | 3.59
YNPHPGFPELGYSEGGGSASSQHS | 4.1
YNPHPGFPELGYSKGGGSASSQHS | 2.95

Variant | protein stability index
YNPHPGFPELGYSRGGGSASSQHS | 3.05
YNPHPGFPELGYSCGGGSASSQHS | 3.1
YNPHPGFPELGYSWGGGSASSQHS | 2.76
YNPHPGFPELGYSGGGGSASSQHS | 3.69
YNPHPGFPELGYSPGGGSASSQHS | 3.32
YNPHPGFPELGYSHGGGSASSQHS | 3.71
YNPHPGFPELGYSTGGGSASSQHS | 3.24
YNPHPGFPELGYSSGGGSASSQHS | 3.48
YNPHPGFPELGYSVGGGSASSQHS | 3.26
YNPHPGFPELGYSQGGGSASSQHS | 3.15
YNPHPGFPELGYSMGGGSASSQHS | 2.86
YNPHPGFPELGYSAGGGSASSQHS | 3.77
YNPHPGFPELGYSFGGGSASSQHS | 2.4
YNPHPGFPELGYSDGGGSASSQHS | 3.38
YNPHPGFPELGYSIGGGSASSQHS | 2.64
YNPHPGFPELGYSLGGGSASSQHS | 2.69
YNPHPGFPELGYSYHGGSASSQHS | 2.3
YNPHPGFPELGYSYKGGSASSQHS | 2.91
YNPHPGFPELGYSYVGGSASSQHS | 2.22
YNPHPGFPELGYSYCGGSASSQHS | 2.11
YNPHPGFPELGYSYWGGSASSQHS | 2.3
YNPHPGFPELGYSYFGGSASSQHS | 2.54
YNPHPGFPELGYSYSGGSASSQHS | 2.86
YNPHPGFPELGYSYIGGSASSQHS | 2.63

Variant | protein stability index
YNPHPGFPELGYSYNGGSASSQHS | 2.63
YNPHPGFPELGYSYRGGSASSQHS | 2.33
YNPHPGFPELGYSYMGGSASSQHS | 2.57
YNPHPGFPELGYSYEGGSASSQHS | 3.33
YNPHPGFPELGYSYTGGSASSQHS | 3.05
YNPHPGFPELGYSYDGGSASSQHS | 3.37
YNPHPGFPELGYSYYGGSASSQHS | 1.82
YNPHPGFPELGYSYLGGSASSQHS | 2.24
YNPHPGFPELGYSYAGGSASSQHS | 2.43
YNPHPGFPELGYSYQGGSASSQHS | 2.63
YNPHPGFPELGYSYPGGSASSQHS | 2.9
YNPHPGCPELGYSYGGGSASSQHS | 2.85
YNPHPGEPELGYSYGGGSASSQHS | 2.7
YNPHPGGPELGYSYGGGSASSQHS | 3
YNPHPGSPELGYSYGGGSASSQHS | 2.59
YNPHPGHPELGYSYGGGSASSQHS | 2.98
YNPHPGNPELGYSYGGGSASSQHS | 3.38
YNPHPGKPELGYSYGGGSASSQHS | 3.68
YNPHPGQPELGYSYGGGSASSQHS | 3.23
YNPHPGRPELGYSYGGGSASSQHS | 2.86
YNPHPGDPELGYSYGGGSASSQHS | 2.44
YNPHPGTPELGYSYGGGSASSQHS | 3.44
YNPHPGAPELGYSYGGGSASSQHS | 2.6
YNPHPGWPELGYSYGGGSASSQHS | 2.14

Variant | protein stability index
YNPHPGYPELGYSYGGGSASSQHS | 2.68
YNPHPGMPELGYSYGGGSASSQHS | 3.19
YNPHPGVPELGYSYGGGSASSQHS | 3.01
YNPHPGPPELGYSYGGGSASSQHS | 3.44
YNPHPGIPELGYSYGGGSASSQHS | 2.87
YNPHPGLPELGYSYGGGSASSQHS | 3.35
YNPHPGFLELGYSYGGGSASSQHS | 2.12
YNPHPGFNELGYSYGGGSASSQHS | 3
YNPHPGFAELGYSYGGGSASSQHS | 2.37
YNPHPGFRELGYSYGGGSASSQHS | 2.7
YNPHPGFFELGYSYGGGSASSQHS | 2.23
YNPHPGFEELGYSYGGGSASSQHS | 3.16
YNPHPGFKELGYSYGGGSASSQHS | 2.38
YNPHPGFVELGYSYGGGSASSQHS | 2.57
YNPHPGFIELGYSYGGGSASSQHS | 1.71
YNPHPGFHELGYSYGGGSASSQHS | 2.38
YNPHPGFDELGYSYGGGSASSQHS | 3.37
YNPHPGFCELGYSYGGGSASSQHS | 2.54
YNPHPGFTELGYSYGGGSASSQHS | 3.11
YNPHPGFMELGYSYGGGSASSQHS | 2.52
YNPHPGFYELGYSYGGGSASSQHS | 2.33
YNPHPGFSELGYSYGGGSASSQHS | 2.73
YNPHPGFWELGYSYGGGSASSQHS | 2.48
YNPHPGFQELGYSYGGGSASSQHS | 2.67

Variant | protein stability index
YNPHPGFGELGYSYGGGSASSQHS | 3.26
YNPHPNFPELGYSYGGGSASSQHS | 2.93
YNPHPQFPELGYSYGGGSASSQHS | 3.44
YNPHPTFPELGYSYGGGSASSQHS | 2.28
YNPHPYFPELGYSYGGGSASSQHS | 2.17
YNPHPLFPELGYSYGGGSASSQHS | 2.48
YNPHPMFPELGYSYGGGSASSQHS | 2.74
YNPHPSFPELGYSYGGGSASSQHS | 2.69
YNPHPWFPELGYSYGGGSASSQHS | 1.74
YNPHPVFPELGYSYGGGSASSQHS | 2.7
YNPHPRFPELGYSYGGGSASSQHS | 2.46
YNPHPGFPELGYHYGGGSASSQHS | 2.59
YNPHPGFPELGYGYGGGSASSQHS | 2.55
YNPHPGFPELGYNYGGGSASSQHS | 3.08
YNPHPGFPELGYLYGGGSASSQHS | 2.13
YNPHPGFPELGYYYGGGSASSQHS | 2.19
YNPHPGFPELGYPYGGGSASSQHS | 2.58
YNPHPGFPELGYWYGGGSASSQHS | 2.53
YNPHPGFPELGYMYGGGSASSQHS | 2.67
YNPHPGFPELGYVYGGGSASSQHS | 1.71
YNPHPGFPELGYIYGGGSASSQHS | 2.24
YNPHPGFPELGYRYGGGSASSQHS | 2.85
YNPHPGFPELGYCYGGGSASSQHS | 1.78
YNPHPGFPELGYEYGGGSASSQHS | 3.71

Variant | protein stability index
YNPHPGFPELGYDYGGGSASSQHS | 3.52
YNPHPGFPELGYFYGGGSASSQHS | 1.95
YNPHPGFPELGYTYGGGSASSQHS | 2.23
YNPHPGFPELGYQYGGGSASSQHS | 3
YNPHPGFPELGYKYGGGSASSQHS | 2.94
YNPHPGFPELGYAYGGGSASSQHS | 2.95
YNPHPGFPELGVSYGGGSASSQHS | 1.74
YNPHPGFPELGCSYGGGSASSQHS | 2.27
YNPHPGFPELGDSYGGGSASSQHS | 4.19
YNPHPGFPELGKSYGGGSASSQHS | 2.47
YNPHPGFPELGESYGGGSASSQHS | 3.79
YNPHPGFPELGPSYGGGSASSQHS | 1.99
YNPHPGFPELGGSYGGGSASSQHS | 3.51
YNPHPGFPELGLSYGGGSASSQHS | 2.03
YNPHPGFPELGASYGGGSASSQHS | 2.87
YNPHPGFPELGHSYGGGSASSQHS | 3.26
YNPHPGFPELGWSYGGGSASSQHS | 2.19
YNPHPGFPELGISYGGGSASSQHS | 2.06
YNPHPGFPELGSSYGGGSASSQHS | 3.15
YNPHPGFPELGRSYGGGSASSQHS | 2.68
YNPHPGFPELGNSYGGGSASSQHS | 3.96
YNPHPGFPELGFSYGGGSASSQHS | 3.09
YNPHPGFPELGMSYGGGSASSQHS | 3.29
YNPHPGFPELGTSYGGGSASSQHS | 3.01

Variant | protein stability index
YNPHPGFPELGQSYGGGSASSQHS | 3.42
YNPHPGFPEVGYSYGGGSASSQHS | 3.17
YNPHPGFPEYGYSYGGGSASSQHS | 2.57
YNPHPGFPEDGYSYGGGSASSQHS | 3.55
YNPHPGFPESGYSYGGGSASSQHS | 3.16
YNPHPGFPEQGYSYGGGSASSQHS | 3.18
YNPHPGFPEEGYSYGGGSASSQHS | 4.41
YNPHPGFPETGYSYGGGSASSQHS | 2.98
YNPHPGFPENGYSYGGGSASSQHS | 3.74
YNPHPGFPEPGYSYGGGSASSQHS | 3.04
YNPHPGFPECGYSYGGGSASSQHS | 3.06
YNPHPGFPEMGYSYGGGSASSQHS | 2.04
YNPHPGFPEHGYSYGGGSASSQHS | 3.4
YNPHPGFPEIGYSYGGGSASSQHS | 2.6
YNPHPGFPEFGYSYGGGSASSQHS | 2.92
YNPHPGFPERGYSYGGGSASSQHS | 3.64
YNPHPGFPEKGYSYGGGSASSQHS | 3.05
YNPHPGFPEAGYSYGGGSASSQHS | 3.17
YNPHPGFPEWGYSYGGGSASSQHS | 1.3
YNPHPGFPEGGYSYGGGSASSQHS | 2.94
